# Data: doi:10.1101/767665
# Where two headings read alike, the source gives them in different places.
# How the values were obtained:
# [1] = target: heliorhodopsin 48C12 (actinobacterium (fosmid from freshwater lake Kinneret)); assay: crystal structure
# [2] = target: heliorhodopsin 48C12 (actinobacterium (fosmid from freshwater lake Kinneret)); assay: crystal structure; remark: listed apart in the source
substance,measurement,setting,value
heliorhodopsin 48C12 (from UniProt A0A2R4S913 1-256) (natural protein),stoichiometry N,[1],2
same,stoichiometry N,[2],2
